Assay results from the supplement of paper PMC12042874.
± gives the uncertainty stated by the source.

Legend:
[1] = amyloid nucleation score (Sup35N fusion, yeast selection) (log enrichment); library NNK2; higher = more nucleation; inactive = no reads after selection
In short: (§1)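 Peptides of 20 random codons, each fused to Sup35N, were expressed in psi-negative yeast. Cells were induced with 100 μM copper sulfate for 24 hours and grown 7 days at 30°C on medium lacking adenine and uracil, and plasmid inserts before and after selection were Illumina-sequenced. Nucleation scores are DiMSum log enrichments of output over input reads, centred on the mode score of non-aggregating sequences, and sequences under 100 input reads were excluded.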

[2] = amyloid nucleation score (Sup35N fusion, yeast selection) (log enrichment); library NNK3; higher = more nucleation; inactive = no reads after selection
In short: as §1

Substance	amyloid nucleation score [1]	amyloid nucleation score [2]
SCSMLVRDDIIIEPDCLLGV	0.45 ± 0.74	
WAVSATWWNFLSVYRKLSDL	-0.095 ± 1.1	
RLNALLVWFVRVSMALVRES	-0.661 ± 1.1	
HDYRVTYDVF	-1.24 ± 1.1	
HSWAKMFMMLWGTMSRWDRA	-0.205 ± 0.62	
PFMRYPWYFIAGYV	-1.52 ± 0.49	
YSISQLWYTLTIHVPFHPLK	-0.114 ± 0.15	
YSLLNVSHVVFTSA	-0.71 ± 0.61	
YLPRRSGRLRPGMRNNMPFR	0.12 ± 0.28	
LRQRY	-0.233 ± 0.64	
FRIGFVFCVSYCRECRN	0.065 ± 1.1	
PGLLQGLKSGWSKTYKLLTR	0.808 ± 0.8	
REIARGRMYLGSPGLVDIVA	-0.232 ± 0.76	
GDKLIEGRASGKGNWILERG	1.19 ± 0.34	
WTNVYAIVFR	4.65 ± 0.044	
QFAHFKNLWVFVLSCRWLPT	-0.158 ± 0.35	
CHMDFERFRWLKFSLFCSLH	-0.562 ± 1.1	
VFVMKMPWQSLISNLIFTSM	1.23 ± 0.2	
SNAVNCLLCVLTRDLIWMDA	8.958 ± 0.067	
GSWHDWHRCRSLRYDQTNTS	-0.185 ± 0.39	
HGETTTGILIELFVIWYVNS	inactive	
CTSCLGKRFSCLTINAGLSW	-0.916 ± 0.56	
GYTIPLYQYKNWGLE	-0.515 ± 1	

Substance	amyloid nucleation score [1]	amyloid nucleation score [2]
WLKVLG	4.571 ± 0.028	
SWEKIGDCYIRWYLLHAGCL	inactive	
VLTMHPVRMFLDFFDDMMCY	inactive	
PAPCTFRYLAITCGLTRYTC	-0.143 ± 0.34	
RECFGGVQYRVRFSKFPYES	-0.663 ± 0.5	
HLMRLHY	-1.78 ± 1.1	
WLMGVRG	-1.01 ± 0.64	
MLKSYDKKWWGTMAWSNSSV	0.711 ± 0.34	
CGMKTRQYCTMSRYVGRYVR	0.231 ± 0.24	
FNWVEWLFFSMAFKLLVESR	inactive	
HKVFISLLCWEKMQKGLTQ	-0.295 ± 0.55	
TESGGSLYNPQLIPDIQGSH	-0.552 ± 1.1	
CNFLQDNVEGVCYNRFKDCL	0.601 ± 0.49	
WTGSFRMSRQHMWNSTSFQM	-0.215 ± 0.5	
AGYIVIALSRCCTDSRPNRV	inactive	
VLSDRKVY	0.117 ± 0.79	
PSFFCKWKSLYPTVNVCVVN	-0.073 ± 0.49	
NFVIQ	0.011 ± 0.56	
FASLCTW	-0.211 ± 0.46	
FCRWSVTFNFRSMIGPGS	5.344 ± 0.035	
RSVSTTHRCRTTLKTSNYCL	0.778 ± 0.67	
GNVRVECANLYRAVLPDMGH	-0.167 ± 0.63	
YGHFWDFGVPIASSISYKKG	-0.029 ± 0.79	

Substance	amyloid nucleation score [1]	amyloid nucleation score [2]
TVPRFEKHFRAVVNLLGRND	0.277 ± 0.46	
QIFFWSSFN	inactive	
WIHMSFGRLNRYMVRMRGRM	-0.71 ± 1	
SVVMTIHNIGWMLRCSGIVY	-0.823 ± 0.56	
GTMPNGCKS	0.541 ± 0.74	
FMVILSGYIVL	0.429 ± 0.66	
ADNFICIIETYSYILVWRSS	-0.552 ± 0.78	
GQAHRFGTHLRISAGVVPPV	0.01 ± 0.32	
ARFSKHHLTKVLFGKDYQAP	0.235 ± 0.34	
VMGIEMIFVVGLWQLEDVKG	0.747 ± 0.23	
WIAGLCPVDMADL	0.644 ± 0.23	
SLFAVQTVVEVVVHV	0.762 ± 0.41	
FNTGSSMLLLIRVMVGKFGG	-1.57 ± 1.1	
LNRCLDHRWIPKCVC	1.36 ± 0.46	
NMGIFALGAEQD	-0.039 ± 1.1	
KNYVYWDLIHRFCLSTMR	1.62 ± 0.52	
GMVDLGVGSWCMEP	0.893 ± 0.15	
AMIINLRMWYNLRIIIMGTR		inactive
RLGWFYRNIYLLTVEVGRGR		inactive
HYAAFFYLLINMTGHAHFLK		inactive
QYFRLLTLISRPFKTHRGVG		inactive
EATWMSLRYV		inactive
YTRNKQDIWGGNHGSRCQNG		inactive

Substance	amyloid nucleation score [1]	amyloid nucleation score [2]
AVALY		inactive
FRYVREAGIGIVG		inactive
YRGVDLYVGVKLIRTYRVVR		inactive
YAFLELFNFVLNLDLGVGYL		inactive
IYGLPRYFVGYGFFKSYVRL		inactive
KCTFFDTCVTQTCLFNMFGC		2.34 ± 0.063
SYMPGNLSGLWAHLLMEKNC		inactive
SLWMQGWYSSGLLPFGSIAE		inactive
CFSVGKWSIFRN		inactive
VFFIAAFLSTCMR		inactive
WSTLKMVRVCYGASFSNVYM		inactive
NDHLLL		inactive
LTSESSDEICGGRATSVLCL		inactive
MTYST		inactive
VIHQIMIMYGVYPASMKLFF		1.77 ± 0.098
VRSLDNQLSVDFFFVGPVGF		1.3 ± 0.14
CVNGTKEGTVRGSRARGRSF		inactive
MYTCLVPSSLK		inactive
YICVKYEVYNFTFYFVSGFW		inactive
KVIKDNLEVCFLKSMWC		inactive
EVTSYVVFSFLIFTSMFHCK		-0.464 ± 0.36
DEIACPYSAWLRMSMPEARS		inactive
SDFFTLSS		inactive

Substance	amyloid nucleation score [1]	amyloid nucleation score [2]
CSGLCGFSQ		inactive
GGSLYACRGTLRLSNTNVKA		inactive
GYICLGPPAVTVIYVRICRQ		-0.495 ± 1
ADSLRCVSWFSD		inactive
VLKMAACNPGTNSLSTPGCG		inactive
NVIRISICRSMRMGLKGCIF		0.732 ± 0.19
YANCLDNIPDRVQDMYSCFS		inactive
YDSKDF		inactive
GSMLKAMELSDVVGSCIY		inactive
LNMARDYFVFQSPADPGCLV		inactive
SHIDAIAQGNTVSSCGYV		inactive
ELNMAVDAVYCTGSVHKIVF		1.36 ± 0.13
SFQAWVYFVSRLFLECFSSR		inactive
WPSGFCYR		inactive
IFGCFSCSVSMFIDNAVMSL		2.55 ± 0.066
SSLSDSDGSFLDIMGAYYWA		inactive
LVSLLVWPYLAWCQGCYSVE		inactive
SPGPFR		inactive
IFVSCCLLRLSAGWVVKLIR		inactive
STTGWSMYYWSIRADREVTY		inactive
NVRGNNLSRM		inactive
NFDKFDRRRWVMIIVYMAPA		inactive
TPWSYASLVLSVQCFGRLIM		inactive

Substance	amyloid nucleation score [1]	amyloid nucleation score [2]
EGDYECGNTWQNGGSTSEDP		inactive
ELFSVNKCDLALNTCLTVPG		2.6 ± 0.061
IFLLAVNSGINVTGCPLPKG		2.28 ± 0.09
SNDIRF		inactive
SCLRHPSTSSQNKSCLPDIP		inactive
IVQLVIFLSRYDVLELCMHK		0.07 ± 0.47
YCKEGLQQDPIFSKFYEHLG		inactive
GLFSLIIR		inactive
ITSSVSFSRPYGVRGLLKKG		0.002 ± 0.43
TMQEGRLSSWYSTVFFS		-0.073 ± 0.43
GRYVCRL		-0.459 ± 0.9
NFKLLLTSPWYATV		inactive
PAMVCNPTQATRGKSRMVPL		inactive
HKMRRSLQFNEMGLFSPKVY		inactive
SLWRLMSETVGLKKMQ		inactive
NTVNWSFFVMVLSFSSRETV		inactive
FVYTDVCSQFFRMGHFDTSY		-0.21 ± 0.7
FHIGLSITVT		inactive
SHLSYYTFKWSSEATRAVPM		1.82 ± 0.11
VDNCYDVITSLILSKYVLTL		inactive
MAFGWWLDSMLYFITDALVP		inactive
TCNYMSGGFALRFTISYGGA		inactive
MRNTFRTHSKQYHHG		inactive

Substance	amyloid nucleation score [1]	amyloid nucleation score [2]
PVNFFKKFMSAMEVRYHRTK		-0.046 ± 0.38
DFRHSMEASWKIWIRAGTRE		inactive
VTHGSVCFTTIYRTIWRFNR		inactive
NLDRLYI		inactive
SVFFYKYQALIRNEGEK		inactive
LSVNYKLGQYRTLWFHHSLG		inactive
RTNDHVNW		inactive
TEVFVHFTCEIGYIFLILFQ		inactive
LFFYSYTSFSIC		inactive
PEFMTVLDVTMSYWWESCLG		inactive
MYYMVTGRLVICRN		inactive
FLRFSAVDVSNGGNSMLL		inactive
NVHMMC		inactive
NYLNTVPVPGGPMVCMQHRI		inactive
NTFCGVEISSYIGAARKCLK		inactive
SHNVSTWRMICSWLVRPFIR		inactive
RMDNCSGDI		inactive
PGIQYPSCRKLVIIYMSCL		inactive
SFRSSSYEDNCLLVVDNVRT		inactive
FDPYFVFHNWVLYWFRVFTF		inactive
DSISISY		inactive
NGIVPLSHLFYIGDSVKWWG		inactive
